Test system: Escherichia coli TOP10
Assay: shrunken log2 fold change of peptide-encoding DNA abundance (4.5 h post-induction vs induction); higher = less antimicrobial activity (less host growth inhibition)
Conditions: time post-induction: 4.5 h; library: site-saturation at positions 5, 18, 19, 20
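Also: peptides expressed intracellularly from a pBAD plasmid library in pooled LB shake-flask culture, induced with 0.3% L-arabinose, DNA abundance read by NGS, three biological replicates, DESeq2 with apeglm shrinkage.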

Row | Sequence | shrunken log2 fold change
1 | RRIRPRPPRLPRPRPRPMENPRP | 0.127
2 | RRIRPRPPRLPRPRPRPMFDPRP | -0.231
3 | RRIRPRPPRLPRPRPRPMFQPRP | -0.241
4 | RRIRPRPPRLPRPRPRPMHKPRP | 0.0775
5 | RRIRPRPPRLPRPRPRPMIFPRP | -0.214
6 | RRIRPRPPRLPRPRPRPMKDPRP | -0.313
7 | RRIRPRPPRLPRPRPRPMKQPRP | 0.036
8 | RRIRPRPPRLPRPRPRPMNMPRP | -0.668
9 | RRIRPRPPRLPRPRPRPMNTPRP | -0.0416
10 | RRIRPRPPRLPRPRPRPMPTPRP | 0.22
11 | RRIRPRPPRLPRPRPRPMRKPRP | 0.365
12 | RRIRPRPPRLPRPRPRPMRSPRP | 0.478
13 | RRIRPRPPRLPRPRPRPMSQPRP | 0.0517
14 | RRIRPRPPRLPRPRPRPMTCPRP | -0.251
15 | RRIRPRPPRLPRPRPRPMTPPRP | 0.165
16 | RRIRPRPPRLPRPRPRPMVLPRP | 0.0636
17 | RRIRPRPPRLPRPRPRPMWPPRP | 0.213
18 | RRIRPRPPRLPRPRPRPMWYPRP | -0.111
19 | RRIRPRPPRLPRPRPRPMYKPRP | -0.323
20 | RRIRPRPPRLPRPRPRPNAAPRP | 0.237
21 | RRIRPRPPRLPRPRPRPNADPRP | 0.0878
22 | RRIRPRPPRLPRPRPRPNAGPRP | 0.0847

Row | Sequence | shrunken log2 fold change
23 | RRIRPRPPRLPRPRPRPNANPRP | 0.0132
24 | RRIRPRPPRLPRPRPRPNCYPRP | -0.344
25 | RRIRPRPPRLPRPRPRPNGIPRP | -0.153
26 | RRIRPRPPRLPRPRPRPNHDPRP | -0.384
27 | RRIRPRPPRLPRPRPRPNHEPRP | -0.419
28 | RRIRPRPPRLPRPRPRPNHGPRP | -0.0975
29 | RRIRPRPPRLPRPRPRPNIGPRP | 0.0125
30 | RRIRPRPPRLPRPRPRPNIHPRP | -0.579
31 | RRIRPRPPRLPRPRPRPNILPRP | -0.305
32 | RRIRPRPPRLPRPRPRPNISPRP | -0.208
33 | RRIRPRPPRLPRPRPRPNKQPRP | 0.0754
34 | RRIRPRPPRLPRPRPRPNNCPRP | -0.0794
35 | RRIRPRPPRLPRPRPRPNPYPRP | -0.465
36 | RRIRPRPPRLPRPRPRPNQDPRP | -0.167
37 | RRIRPRPPRLPRPRPRPNTMPRP | -0.492
38 | RRIRPRPPRLPRPRPRPNTSPRP | -0.237
39 | RRIRPRPPRLPRPRPRPNVRPRP | -0.163
40 | RRIRPRPPRLPRPRPRPNVVPRP | -0.0229
41 | RRIRPRPPRLPRPRPRPNWEPRP | 0.0541
42 | RRIRPRPPRLPRPRPRPNWYPRP | -0.338
43 | RRIRPRPPRLPRPRPRPNYIPRP | -0.739
44 | RRIRPRPPRLPRPRPRPNYPPRP | -0.392

Row | Sequence | shrunken log2 fold change
45 | RRIRPRPPRLPRPRPRPNYQPRP | -0.293
46 | RRIRPRPPRLPRPRPRPPCIPRP | 0.00615
47 | RRIRPRPPRLPRPRPRPPCLPRP | -0.153
48 | RRIRPRPPRLPRPRPRPPDSPRP | 0.326
49 | RRIRPRPPRLPRPRPRPPEPPRP | 0.787
50 | RRIRPRPPRLPRPRPRPPFMPRP | 0.315
51 | RRIRPRPPRLPRPRPRPPFRPRP | 0.529
52 | RRIRPRPPRLPRPRPRPPGYPRP | 0.116
53 | RRIRPRPPRLPRPRPRPPHDPRP | 0.572
54 | RRIRPRPPRLPRPRPRPPHIPRP | 0.806
55 | RRIRPRPPRLPRPRPRPPHVPRP | 0.782
56 | RRIRPRPPRLPRPRPRPPKNPRP | 0.26
57 | RRIRPRPPRLPRPRPRPPLKPRP | 0.441
58 | RRIRPRPPRLPRPRPRPPMAPRP | 0.338
59 | RRIRPRPPRLPRPRPRPPMWPRP | 0.412
60 | RRIRPRPPRLPRPRPRPPNAPRP | 0.435
61 | RRIRPRPPRLPRPRPRPPNKPRP | 0.139
62 | RRIRPRPPRLPRPRPRPPNRPRP | 0.29
63 | RRIRPRPPRLPRPRPRPPPEPRP | 0.492
64 | RRIRPRPPRLPRPRPRPPQAPRP | 0.335
65 | RRIRPRPPRLPRPRPRPPQPPRP | 0.441
66 | RRIRPRPPRLPRPRPRPPQSPRP | 0.621

Row | Sequence | shrunken log2 fold change
67 | RRIRPRPPRLPRPRPRPPRGPRP | 0.811
68 | RRIRPRPPRLPRPRPRPPRPPRP | 0.682
69 | RRIRPRPPRLPRPRPRPPRSPRP | 0.518
70 | RRIRPRPPRLPRPRPRPPSIPRP | -0.0949
71 | RRIRPRPPRLPRPRPRPPSMPRP | 0.29
72 | RRIRPRPPRLPRPRPRPPSRPRP | 0.353
73 | RRIRPRPPRLPRPRPRPPSSPRP | -0.207
74 | RRIRPRPPRLPRPRPRPPTAPRP | 0.189
75 | RRIRPRPPRLPRPRPRPPTEPRP | 0.306
76 | RRIRPRPPRLPRPRPRPPTIPRP | -0.148
77 | RRIRPRPPRLPRPRPRPPTWPRP | 0.302
78 | RRIRPRPPRLPRPRPRPPVKPRP | 0.172
79 | RRIRPRPPRLPRPRPRPPVPPRP | 0.564
80 | RRIRPRPPRLPRPRPRPPVRPRP | 0.353
81 | RRIRPRPPRLPRPRPRPPWQPRP | 0.443
82 | RRIRPRPPRLPRPRPRPPWWPRP | 0.842
83 | RRIRPRPPRLPRPRPRPPWYPRP | -0.195
84 | RRIRPRPPRLPRPRPRPPYHPRP | -0.226
85 | RRIRPRPPRLPRPRPRPQAAPRP | 0.116
86 | RRIRPRPPRLPRPRPRPQCCPRP | 0.0723
87 | RRIRPRPPRLPRPRPRPQCEPRP | -0.0437
88 | RRIRPRPPRLPRPRPRPQCWPRP | 0.0194

Row | Sequence | shrunken log2 fold change
89 | RRIRPRPPRLPRPRPRPQDHPRP | -0.12
90 | RRIRPRPPRLPRPRPRPQDYPRP | -0.0245
91 | RRIRPRPPRLPRPRPRPQEDPRP | -0.0602
92 | RRIRPRPPRLPRPRPRPQEHPRP | -0.225
93 | RRIRPRPPRLPRPRPRPQFFPRP | -0.0064
94 | RRIRPRPPRLPRPRPRPQGMPRP | -0.279
95 | RRIRPRPPRLPRPRPRPQHPPRP | 0.0328
96 | RRIRPRPPRLPRPRPRPQIFPRP | -0.137
97 | RRIRPRPPRLPRPRPRPQIPPRP | -0.0392
98 | RRIRPRPPRLPRPRPRPQKFPRP | -0.178
99 | RRIRPRPPRLPRPRPRPQMLPRP | 0.0602
100 | RRIRPRPPRLPRPRPRPQNRPRP | -0.598
101 | RRIRPRPPRLPRPRPRPQPDPRP | -0.0815
102 | RRIRPRPPRLPRPRPRPQPLPRP | 0.16
103 | RRIRPRPPRLPRPRPRPQPMPRP | 0.225
104 | RRIRPRPPRLPRPRPRPQPYPRP | -0.177
105 | RRIRPRPPRLPRPRPRPQQCPRP | -0.462
106 | RRIRPRPPRLPRPRPRPQQFPRP | -0.049
107 | RRIRPRPPRLPRPRPRPQSSPRP | -0.0675
108 | RRIRPRPPRLPRPRPRPQTSPRP | 0.163
109 | RRIRPRPPRLPRPRPRPQVLPRP | -0.208
